Measurements from the DeepSol protein solubility set.

Assay: soluble on expression in E. coli; label from the status in PepcDB or PDB records

Sequence	soluble on expression in E. coli
MSLQTKILIIDGDKDNCQKLKGFLEEKGISIDLAYNCEEAIGKIFSNKYDLIFLEIILSDGDGWTLCKKIRNVTTCPIVYMTYINEDQSILNALNSGGDDYLIKPLNLEILYAKVKAILRRMNSYVNNNENNTKLEEYNRTSGVIKLEDKIIKLTPTENKLLNFFIENPEKTLTTKEIYEHVWMNEYLEDNYSVVVAVNGLRKKIEKDYKNPQKIITIRGAGYYFNKEGHHHHHH	soluble
MQMLRNVHPVTEIQVSANMAEVRARVDFKVGAKSNIDAEILSFHGLQSDKEHVAVIFKSADTTQEAPLVRMHSECLTGDVFHSSRCDCGEQLEETITRMGQSGGIILYLRQEGRGIGLYNKIDAYRLQSQGMNTYEANNHLGFGDDLRDFTEAAQMLQALGVKKIRLVTNNPKKIRELQEHGIEIVEVVHTSAHIKDGNENYLKAKVSHGKHQLKL	not soluble
MRGSHHHHHHPEYDYIRDGNAIYERSFAIIRAEADLSRFSEEEADLAVRMVHACGSVEATRQFVFSPDFVSSARAALKAGAPILCDAEMVAHGVTRARLPAGNEVICTLRDPRTPALAAEIGNTRSAAALKLWSERLAGSVVAIGNAPTALFFLLEMLRDGAPKPAAILGMPVGFVGAAESKDALAENSYGVPFAIVRGRLGGSAMTAAALNSLARPGL	soluble
SSVDPMTYEAQFFGFTPQTCMLRIYIAFQDYLFEVMQAVEQVILKKLDGIPDCDISPVQIRKCTEKFLCFMKGHFDNLFSKMEQLFLQLILRIPSNILLPEDKCKETPYSEEDFQHLQKEIEQLQEKYKTELCTKQALLAELEEQKIVQAKLKQTLTFFDELHNVGRDHGTSDFRESLVSLVQNSRKLQNIRDNVEKESKRLKIS	soluble
MTPMKTYDLIVIGTGPGGYHAAIRAAQLGLKVLAVEAGEVGGVCLNVGCIPTKALLHAAETLHHLKVAEGFGLKAKPELDLKKLGGWRDQVVKKLTGGVGTLLKGNGVELLRGFARLVGPKEVEVGGERYGAKSLILATGSEPLELKGFPFGEDVWDSTRALKVEEGLPKRLLVIGGGAVGLELGQVYRRLGAEVTLIEYMPEILPQGDPETAALLRRALEKEGIRVRTKTKAVGYEKKKDGLHVRLEPAEGGEGEEVVVDKVLVAVGRKPRTEGLGLEKAGVKVDERGFIRVNARMETSVPGVYAIGDAARPPLLAHKAMREGLIAAENAAGKDSAFDYQVPSVVYTSPEWAGVGLTEEEAKRAGYKVKVGKFPLAASGRALTLGGAEGMVKVVGDEETDLLLGVFIVGPQAGELIAEAALALEMGATLTDLALTVHPHPTLSESLMEAAEAFHKQAIHILNR	soluble
MGSDKIHHHHHHAVFVAVGIRMITSGDGRTNRYDVEAGNNTYDNAVIENSKISEKNKIQNNQSMLDDIMNSTQYPKQLKDLALKNEEALEFVFDYPAEHVKEHTIDLTEEASMDSVPLFVQWDKRWGYEKYSGNFFAASGCGPTTLSMVVVYLTHNREASPIAVAKYSKEAGYSVDGSGSSWTLISEGCMHYGVKAKAVALDESRMKAELDEGHPIVVNVGPGDFTDTGHFMVITGYDDEGFSINDPNSIEKSGKRWLFKNISSQIRAVWSMYV	not soluble
MNVTEISAGQFQEMVQAGATRLHTNAEYVNSLNVFPVPDGDTGTNMNLSMTSGAKAVADSRSEKVGELAGALSKGLLMGARGNSGVILSQLFRGFSKQIPEVTTLNAKDLAAAFTHGVETAYKAVMKPVEGTILTVSREAARSGERKAKETDDCIEVMTAVVAGAKRALAKTPDLLPVLKEVGVVDSGGQGLLFIYEGFLEALSGEFLPTETYEPSPAEMDEMVNAEHHRGVSGHVATEDIKFGYCTEIMVRIGEGPTVDSAFDYETFRNYLNELGDSLLVVNDDEIIKVHVHTEHPGEVMNYGQKFGSLVKIKVDNMRLQHETLVERDAQQEALTEKVRVPFAVIAIAAGEGVQELFRSLGASYIISGGQTMNPSTEDILKAVKEVNAEQVIILPNNKNIFMAADQAAEVADVPVAVVPSKTISQGMTAMLAFNDQQSLEENKASMTEMLDSVVSGQVTTAVRDTTIDDVEIKKDDFLGMIDGKIVVSEADRFNASLDTLNRMIDEDTEIVTIIVGEDGSVEEAEKLIAILVSENDELETELHEGGQPVYPYLFSAE	not soluble
MGSDKIHHHHHHMLIRLGYEIAIECAEATPVISLLEIHKDRQADIKRQTRVLTSPSVPTKLYHDLHGNGCRRFTAPAGTFRILYDAVIEDSGETDEVNTLAREVPVAELPDEVLFYLLGSRYCETDHLSSLAWQLFGHLPSGWARVQAIVDYVHNRLSFGYGYARSTRTAAQAHEERVGVCRDFAHLAITLCRCMNIPARYVNGYLGDIGVPIDPAPMDFSAWMEVFLDGKWYTFDPRHNQPRTGRIVIARGRDATDVPLLHSFGPHRLCLFKVWTYEQEGRSFNPPHRGIDRTVSAQMLA	not soluble
MGSDKIHHHHHHMSIKILQPGLFSTVQDLGRKGYEHIGFSGAGAMDQFSFKVAQLLINNDGPAIEYTLIGPTIQFNTQNTFVITGGSVNASLNNKTISMNSVILAEKGDILKIGAITKGARGYLTFGHSINVPPIAESYATHTRSSIGGFKGRKLLANDVITVKINNDFKENIGKTIHLQDDLLPENNIIHILQGPQFEAFSEEARAKIVNHPYLITEQSDRMGYRLEGDSVAPINQADIISEPVALGSVQVPNDGQPIILLNDKQTIGGYTKIATVCKFDLPKLAQMKPQDTIQFKWISFQEAVDKNREQMSLFNEILKSHQKTPIFDTSSLRHTSKKLATILKGDL	not soluble
MVGSLNCIVAVSQNMGIGKNGDLPWPPLRNEFRYFSRMTTTSSVEGKQNLVIMGKKTWFSIPEKFRPLKGRINLVLSRELKEPPQGAHFLSRSLDDALKLTEQPELANKVDMVWIVGGSSVYKEAMNHPGHLKLFVTRIMQDFESDTFFPEIDLEKYKLLPEYPGVLSDVQEEKGIKYKFEVYEKND	soluble
MIIIMAGGKSSRMGREKPVLKIAGKEMLLWVYEQAEAVGEVLVALSRHTPRTRELCLREGIEFVDTPGRGYVKDVQWLLREFGPFISLSSDIPFVKSSDIYSLLKEFDGKVSLTGVLPLEVVPKDLTPYSYMGYAIVGINGVAKEGEKFFVFSNPLLALNVNTPRELELAKRVAEIIRVRGIR	soluble
MLERIKSGVIGLDEILGGGFIKNTVNAVVGGMGCGKTIFCMNYLLEGLENGEKCMYASPDLDVDEFLRLAESMHWDFSKYIDNGQLNIMTVVAEDAASFIKMAFEYDRVAVDALSPLVIDVEAGSRKEIGWLLKNLKSKGTALITVEEPLRQNADLLLLLADSVISLRYTGYGGPFSRTLRVLKHRMSWHGDGVYPFYIIEGAGIVIDEKRGEGFELEEEMNLPERAKEKIAEMCKKGTLTLEDISKIKRRIP	not soluble
MISDSKLLASAAWDAQSLNELKAKASEDPAANIRPVARQVEGMFVQMMLKSMRDALPKDGLFSSEHTRLYTSMYDQQIAQQMTAGKGLGLAEMMVKQMTPEQPLPEESTPAAPMKFPLETVVRYQNQTLSQLVQKAVPRNYDDSLPGDSRAFLAQLSLPAQLASQQSGVPHHLILAQAALESGWGQRQIRRENGEPSYNLFGVKASGNWKGQVTEITTTEYENGEAKKVKAKFRVYSSYLEALSDYVGLLTRNPRYAAVTTAASAEQGAQVLQDAGYATDPHYARKLTNMIQQMKSISDKVSKTYSMNIDNLF	not soluble
MGSDKIHHHHHHMINPAHFDLQSLRIFLQVAQSGSLTKAAEKFHITLSALSKRIAELERTVDCALFIRMPRGLTLTPAGKELVNLAGNVLSNVERMASEMNDYAVGVRGHVHMWANTSAIIQFLPQDLASFLPTRPLIRINLEEKLSKTVVTALAMGEADIGIFVDNVGSQGVEKIPYRKDKLVVLVPPQHPLSALSDVSFNDTLGYDYVGLNSGSSLLKQLKDASDELGRVLRLRVQVSSFDGICRMIEAGLGISVLPEGAIRPEVLGTGLRAINLTDEWASRQLWLGVKSGAILQPEVTNLLTHLRQCGA	not soluble
MGSDKIHHHHHHMNKANTVDTSTEAVERVAKEISGLASREAVSMIQGWEDAFELYLKAADQLSALAAERDTLANQVEDCARECAKLAEEIQRLQAQLAETRASLYALEKGVWRDGYPDKISGSEWFIALLEDNRRVVLRSLPEEHSYDYTTADDTYLAAWKIKRWMQFPDANFIAPDTIVHTTVERIEQIKEEARNAALEEAAEVVARIKKPTIPPMFMGQTRAEAYDMGQHNACESKAELIRTLKSEPAPHPDCPECSGSGMRDSGGVQPWGDHIDAPCDCENAPAPRQSVQKAADNLAKGLRSAGYFIPSSIIFDVMVQKKSAS	not soluble
MSLDAGRHRVALLVPLTGANAAVGQSIANAATMALLDTNAANMRITTYDTASGAGSAASRAISDGNKLILGPLLGNDVVLVSNVARPAKVPMITYSNDSAVASRDVFVMGQAPGQSVARVLGFAKSKGIGSVAAIIPTGDYGQRAMNAVVDSGRALGVTVTAIETYDRGNTSVASAVRRVKEKGRFDALLIADGSRIALQAAPLAGKGVKLLGTELWSGEAAIAKSPATRGSWFAAVSDGRFGQFEKSYRTRFGATPSRLATLGYDSVLLTLNVARNWKPGTTFPTAKLYDPQGFIGLDGVFRFTASGMAERAMEVREVGAGTFTTVSPAEGHHHHHH	soluble
RQSVQTVLPESTGNNTLSLRDSVCRDLFQLFSSPHSPLPILLVSGMPEWQGHNQSDKLLQSWYCRQLRSALLFHEPRIAALQVNLKEAYCHELAISLEMMLYHDDEPLTFDLVWQKG	not soluble
APLAHCDGRGGLKLSQDMDTCEDILPCVPFSVAKSVKSLYLGRMFSGTPVIRLRFKRLQPTRLVAEFDFRTFDPEGILLFAGGHQDSTWIVLALRAGRLELQLRYNGVGRVTSSGPVINHGMWQTISVEELARNLVIKVNRDAVMKIAVAGDLFQPERGLYHLNLTVGGIPFHEKDLVQPINPRLDGCMRSWNWLNGEDTTIQETVKVNTRMQCFSVTERGSFYPGSGFAFYSLDYMRTPLDVGTESTWEVEVVAHIRPAADTGVLFALWAPDLRAVPLSVALVDYHSTKKLKKQLVVLAVEHTALALMEIKVCDGQEHVVTVSLRDGEATLEVDGTRGQSEVSAAQLQERLAVLERHLRSPVLTFAGGLPDVPVTSAPVTAFYRGCMTLEVNRRLLDLDEAAYKHSDITAHSCPPVEPAAA	soluble
MGSDKIHHHHHHMKKHSPIGCISKAGLFSKLPHKMLEKIAPISTHQEYFEKGSFIRQPGDGKNGMMFVDKGSAKIYNLNRDGKETVLGVLNKGDYDGQQNLFQDDSHENFIQALQDTYICSISRADFQRLLKDTPDLTLNLLNNFGEKLVAIETNSVRRNSMNAKDRLMDYLVEQSQKNGATKFTLPLKKKDLASYLGTSPETLSRQLKSLEKEGKIKVNRREITIVKD	not soluble
MSLSDTIPVFDGHNDFLLRLLRNPANRETIWLKGDGTGHLDLPRMKEGGFAGGFFAIYVPSPQAHDAAHFEAMMDAPPFELPLPPMIRAEQAQPVALAMAGHLLWMERAARGRFKVCRTAAEVRSCHADGIVSGIMHMEGAEAIGADLDALHLFHSLGLRSLGPVWSRPTVFGHGVPFRFPGSPDTGEGLTEAGRRLVAECNRLKIMLDLSHLNEKGFDDVARLSDAPLVATHSNAHAVTPSTRNLTDRQLAMIRESRGMVGLNFATSFLREDGRRSAEMGWEPVLRHLDHLIDRLGEDHVGMGSDFDGATIPQGIADVTGLPALQAAMRAHGYDEPLMRKLCHENWYGLLERTWGEGHHHHHH	soluble
MGHHHHHHSHHPFVRSAKGVSILRDLINEAMDVKLKRQESQQREVDQDDEENSEEDEMDSGTMVRAVGDEMGTVRVASTMTDGANTMIEHDDTLPSQLGTMVINAEDEEEEGTMKRRDETMQPAKPSFLEYFEQKEKENQINSFGKSVPGPLKNSSDWKIPQDGDYEFLKSWTVEDLQKRLLALDPMMEQEIEEIRQKYQSKRQPILDAIEAKKRRQQNF	soluble
